Test results: patent US20100221257A1 (AstraZeneca / MedImmune, published 2010)
Substitutions are numbered along the chain they refer to. Each block holds one binder with its values, some of them ahead of it.

Tests used:
[1] = target: T1, human histidine tagged (HIS) IL1RFc fusion protein (human); assay: KinExA, FAb equilibrated in solution with IL-1R1-Fc; free FAb captured on IL-1R1 beads
T1 construct: Biotinylated or cryptate labelled in some assays; also called human HIS IL1RFc; huIL-1R1-Fc
Description: (§1) Firstly either a monomerised FAb was allowed to come to equilibrium with sIL-1R1-Fc (soluble sIL-1R1-Fc), or the IgG was allowed to come to equilibrium with sIL-1R1 (un-tagged). These equilibrated solutions of the interacting molecules were then analysed using KinExA™. 3200 technology. In brief, for each equilibrated sample, the KinExA™. 3200 instrument automatically packed a fresh column of sIL-1R1 conjugated micro-beads. The sample containing antibody (or FAb fragment), antigen, and Ab/antigen (or FAb/antigen) complex (in Dulbecco's PBS, 1 mg mL⁻¹ bovine serum albumin, 0.02% (w/v) sodium azide) was flowed rapidly (0.25 mL/min) through the column to keep the contact time of the sample with the antigen-beads extremely brief. This rapid contact time ensured that, for high affinity (slowly dissociating) interactions, dissociation of the complex was negligible during this short contact time. Free antibody bound to the IL-1R1-beads. A Cy5™ (cyanine) fluorescently labelled secondary antibody, mouse anti-human IgG (heavy and light chain specific) was then passed through the column. Labelled secondary antibody bound to the antibody bound to the column. A buffer wash removed excess label, leaving fluorescence signal on the bead column directly proportional to the amount of free […] in the original sample. […]

[2] = target: T2, cynomolgus monkey HIS IL1RFc (cynomolgus monkey); assay: as above
T2 construct: also called Cyno his IL1RFc; CynoIL1-R1-Fc
Description: as §1

[3] = target: T1, human histidine tagged (HIS) IL1RFc …; assay: HTRF receptor-ligand assay, scFv inhibiting HIS FLAG IL-1β binding to human HIS IL1RFc
Description: (§2) After pre-incubation of the assay plates, 5 μl of 4 nM HIS FLAG IL1 beta was added. This was followed by 5 μl of 20 nM anti-FLAG IgG labelled with XL665 (CIS Bio international 61FG2XLB) and 5 μl of 3.2 nM anti-human Fc IgG labelled with cryptate (CIS Bio International 61HFCKLB). All dilutions were performed in phosphate buffered saline (PBS) containing 0.4 M potassium fluoride and 0.1% BSA (assay buffer).
(§3) Purified scFv from positive clones identified from screening were tested in either of the above receptor-ligand HTRF® assays for inhibition of binding of human HIS FLAG tagged IL1 beta to human HIS IL1RFc. A skilled person could modify these assays to test IgG or other inhibitor formats. A titration of scFv concentrations was used in order to establish the clone potency as measured by IC₅₀ values in the assay. All dilutions were carried out in assay buffer. 5 μl of a titration of purified scFv sample was added to a 384 well low volume assay plate (Costar 3676). This was then followed by addition of 2 nM human HIS IL1RFc (when using in house HIS IL1 beta) or 8 nM HIS IL1RFc (when using Alexis source IL1 beta) to a volume of 20 μl. Assay plates were then sealed and incubated at room temperature in dark for 1 hour. The subsequent addition steps were carried out as exactly as described for crude scFv containing periplasmic extracts.

[4] = target: T3, human IL-1R1, endogenous on human cells (HeLa cells; whole blood) (human, UniProt P14778 18-569); assay: cell-based or functional assay
T3 sequence (looked up): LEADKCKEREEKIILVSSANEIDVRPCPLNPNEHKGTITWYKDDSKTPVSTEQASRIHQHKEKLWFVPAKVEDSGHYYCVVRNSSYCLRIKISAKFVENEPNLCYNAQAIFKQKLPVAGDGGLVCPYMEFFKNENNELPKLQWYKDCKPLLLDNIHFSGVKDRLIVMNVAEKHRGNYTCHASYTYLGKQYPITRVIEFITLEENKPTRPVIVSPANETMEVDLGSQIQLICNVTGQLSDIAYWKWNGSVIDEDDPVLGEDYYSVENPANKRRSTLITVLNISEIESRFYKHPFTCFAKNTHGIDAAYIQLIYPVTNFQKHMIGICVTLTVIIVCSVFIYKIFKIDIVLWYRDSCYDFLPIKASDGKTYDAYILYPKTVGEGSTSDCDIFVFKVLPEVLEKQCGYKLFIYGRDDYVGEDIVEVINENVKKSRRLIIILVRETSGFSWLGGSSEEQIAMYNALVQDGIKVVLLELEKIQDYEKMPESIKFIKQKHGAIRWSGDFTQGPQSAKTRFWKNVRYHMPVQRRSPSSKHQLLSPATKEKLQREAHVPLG

[5] = target: T4, Human sIL-1R1 (R&D Systems), un-tagged (human, UniProt P14778 18-332, limits assumed); assay: KinExA, IgG equilibrated in solution with un-tagged sIL-1R1; free IgG captured on IL-1R1 beads
T4 construct: Bought; also called soluble human IL-1R1
T4 sequence (looked up): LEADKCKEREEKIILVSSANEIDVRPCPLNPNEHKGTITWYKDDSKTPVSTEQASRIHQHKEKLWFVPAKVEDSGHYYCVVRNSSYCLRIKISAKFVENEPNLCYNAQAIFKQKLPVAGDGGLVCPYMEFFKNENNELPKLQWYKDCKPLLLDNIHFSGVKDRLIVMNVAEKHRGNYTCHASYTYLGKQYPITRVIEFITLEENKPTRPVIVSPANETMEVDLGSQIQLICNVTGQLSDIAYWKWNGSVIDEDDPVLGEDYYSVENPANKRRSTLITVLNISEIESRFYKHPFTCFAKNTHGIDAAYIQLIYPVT
Description: as §1

[6] = target: T1, human histidine tagged (HIS) IL1RFc …; assay: HTRF receptor-ligand assay, scFv inhibiting HIS FLAG IL-1β binding to human HIS IL1RFc; incomplete inhibition curve, value estimated; incomplete inhibition curve; IC50 estimated
Description: as §2, §3

T2 sequence (chain, as listed by the source limits assumed): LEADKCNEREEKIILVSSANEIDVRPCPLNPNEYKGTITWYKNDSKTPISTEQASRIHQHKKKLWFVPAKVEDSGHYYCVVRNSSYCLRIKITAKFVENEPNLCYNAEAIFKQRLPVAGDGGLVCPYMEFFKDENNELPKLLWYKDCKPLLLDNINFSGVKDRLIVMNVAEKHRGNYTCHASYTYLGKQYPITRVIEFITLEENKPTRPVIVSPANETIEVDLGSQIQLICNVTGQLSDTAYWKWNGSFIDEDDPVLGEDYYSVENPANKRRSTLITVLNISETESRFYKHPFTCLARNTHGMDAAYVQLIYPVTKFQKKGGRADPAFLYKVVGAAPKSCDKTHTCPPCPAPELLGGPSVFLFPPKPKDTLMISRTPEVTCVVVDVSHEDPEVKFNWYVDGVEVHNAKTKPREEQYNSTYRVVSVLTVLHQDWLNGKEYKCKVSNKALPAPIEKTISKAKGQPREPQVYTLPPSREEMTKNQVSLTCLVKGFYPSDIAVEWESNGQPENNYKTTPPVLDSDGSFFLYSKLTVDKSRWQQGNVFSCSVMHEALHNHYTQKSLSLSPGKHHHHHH

- Kd [1]: 0.0025 nM
- Kd [2]: 0.0028 nM
B1: Antibody 6 FAb (Fab, V domains shown)
VH: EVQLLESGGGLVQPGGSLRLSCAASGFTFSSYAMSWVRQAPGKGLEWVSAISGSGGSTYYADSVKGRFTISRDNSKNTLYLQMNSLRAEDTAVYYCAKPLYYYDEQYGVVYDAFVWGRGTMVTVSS
VL: QSVLTQPPSVSGAPGQRVTISCTGSSSNIGAGYDVHWYQQLPGTAPKLLIYGDTHRPSGVPDRFSGSKSGTSASLVIAGLQAEDEADYYCQSYDTVRLHHVFGGGTKLTVL
notes: Monomeric FAb made by papain digestion of Antibody 6 IgG1TM; also called anti-IL-1R1FAb; monomerised FAb

- IC50 [3]: 22.5 nM
B2: Antibody 4 scFv (scFv, V domains shown)
VH: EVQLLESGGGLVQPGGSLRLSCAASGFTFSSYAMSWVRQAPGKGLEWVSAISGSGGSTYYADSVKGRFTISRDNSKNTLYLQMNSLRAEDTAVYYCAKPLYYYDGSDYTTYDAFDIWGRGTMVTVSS
VL: B1 VL with V96S, R97L, L98S, H99G, H100S, V101L
notes: Tested as purified scFv; also called KENB026 or KENB061 (parent, not resolved)

- Mean IC50, whole blood assay, IL-1beta induced release of IL-6 [4]: 311000 nM
- Kd [5]: 0.00305 nM
B3: Antibody 6 IgG1TM (Triple Mutant, 234F, 235E and 331S) (antibody, V domains shown)
VH: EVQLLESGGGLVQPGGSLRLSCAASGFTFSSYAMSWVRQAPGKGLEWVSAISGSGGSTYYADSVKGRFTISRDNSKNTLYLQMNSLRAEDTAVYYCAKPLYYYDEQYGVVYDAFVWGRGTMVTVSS
VL: B1 VL
notes: IgG1 with Fc triple mutant 234F, 235E, 331S (EU index)

- IC50 [6]: ~225 nM
B4: Antibody 1 scFv (scFv, V domains shown)
VH: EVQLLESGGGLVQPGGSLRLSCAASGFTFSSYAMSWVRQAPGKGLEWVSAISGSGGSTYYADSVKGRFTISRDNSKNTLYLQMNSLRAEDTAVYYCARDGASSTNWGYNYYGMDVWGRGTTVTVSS
VL: QAVLTQPSSASGTPGQRVTISCSGSSSNIGSNYVFWYQQFPGTAPQLLVKWNNQRPSGVPDRFSGSKSGTSASLAISGLRSEDEADYYCAAWDDSLSGLVFGGGTKLTVL
notes: as for B2
